Source: PMC6450660

Target: PI3KC3 complex II (PI3KC3-C2): VPS34, VPS15, BECN1, UVRAG (human) (UniProt Q8NEB9)
Sequence (Q8NEB9 whole entry, chain 1 of 4): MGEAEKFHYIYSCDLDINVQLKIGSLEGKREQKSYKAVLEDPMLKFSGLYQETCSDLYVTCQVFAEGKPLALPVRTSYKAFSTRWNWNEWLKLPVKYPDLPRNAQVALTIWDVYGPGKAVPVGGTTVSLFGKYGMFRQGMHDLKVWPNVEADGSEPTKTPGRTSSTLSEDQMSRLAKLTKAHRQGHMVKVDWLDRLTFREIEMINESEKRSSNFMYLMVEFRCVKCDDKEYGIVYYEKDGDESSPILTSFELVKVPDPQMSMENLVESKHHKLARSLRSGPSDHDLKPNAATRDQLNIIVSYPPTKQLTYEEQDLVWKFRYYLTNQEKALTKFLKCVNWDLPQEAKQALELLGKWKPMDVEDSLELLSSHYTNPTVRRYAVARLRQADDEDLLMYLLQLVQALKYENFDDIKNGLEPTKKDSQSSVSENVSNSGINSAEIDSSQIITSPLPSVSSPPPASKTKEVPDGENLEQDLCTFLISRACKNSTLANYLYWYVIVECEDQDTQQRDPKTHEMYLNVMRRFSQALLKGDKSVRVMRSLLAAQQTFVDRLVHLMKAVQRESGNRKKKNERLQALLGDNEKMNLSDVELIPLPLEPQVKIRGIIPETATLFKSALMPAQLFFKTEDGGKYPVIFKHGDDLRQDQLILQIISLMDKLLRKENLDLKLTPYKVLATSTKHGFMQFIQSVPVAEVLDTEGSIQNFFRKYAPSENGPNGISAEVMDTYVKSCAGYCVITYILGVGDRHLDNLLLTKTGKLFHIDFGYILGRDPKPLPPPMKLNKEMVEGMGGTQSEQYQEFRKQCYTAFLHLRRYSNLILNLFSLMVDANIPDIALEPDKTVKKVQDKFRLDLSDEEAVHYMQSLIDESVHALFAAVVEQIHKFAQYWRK
Sequence (Q99570 whole entry, chain 2 of 4, further chain): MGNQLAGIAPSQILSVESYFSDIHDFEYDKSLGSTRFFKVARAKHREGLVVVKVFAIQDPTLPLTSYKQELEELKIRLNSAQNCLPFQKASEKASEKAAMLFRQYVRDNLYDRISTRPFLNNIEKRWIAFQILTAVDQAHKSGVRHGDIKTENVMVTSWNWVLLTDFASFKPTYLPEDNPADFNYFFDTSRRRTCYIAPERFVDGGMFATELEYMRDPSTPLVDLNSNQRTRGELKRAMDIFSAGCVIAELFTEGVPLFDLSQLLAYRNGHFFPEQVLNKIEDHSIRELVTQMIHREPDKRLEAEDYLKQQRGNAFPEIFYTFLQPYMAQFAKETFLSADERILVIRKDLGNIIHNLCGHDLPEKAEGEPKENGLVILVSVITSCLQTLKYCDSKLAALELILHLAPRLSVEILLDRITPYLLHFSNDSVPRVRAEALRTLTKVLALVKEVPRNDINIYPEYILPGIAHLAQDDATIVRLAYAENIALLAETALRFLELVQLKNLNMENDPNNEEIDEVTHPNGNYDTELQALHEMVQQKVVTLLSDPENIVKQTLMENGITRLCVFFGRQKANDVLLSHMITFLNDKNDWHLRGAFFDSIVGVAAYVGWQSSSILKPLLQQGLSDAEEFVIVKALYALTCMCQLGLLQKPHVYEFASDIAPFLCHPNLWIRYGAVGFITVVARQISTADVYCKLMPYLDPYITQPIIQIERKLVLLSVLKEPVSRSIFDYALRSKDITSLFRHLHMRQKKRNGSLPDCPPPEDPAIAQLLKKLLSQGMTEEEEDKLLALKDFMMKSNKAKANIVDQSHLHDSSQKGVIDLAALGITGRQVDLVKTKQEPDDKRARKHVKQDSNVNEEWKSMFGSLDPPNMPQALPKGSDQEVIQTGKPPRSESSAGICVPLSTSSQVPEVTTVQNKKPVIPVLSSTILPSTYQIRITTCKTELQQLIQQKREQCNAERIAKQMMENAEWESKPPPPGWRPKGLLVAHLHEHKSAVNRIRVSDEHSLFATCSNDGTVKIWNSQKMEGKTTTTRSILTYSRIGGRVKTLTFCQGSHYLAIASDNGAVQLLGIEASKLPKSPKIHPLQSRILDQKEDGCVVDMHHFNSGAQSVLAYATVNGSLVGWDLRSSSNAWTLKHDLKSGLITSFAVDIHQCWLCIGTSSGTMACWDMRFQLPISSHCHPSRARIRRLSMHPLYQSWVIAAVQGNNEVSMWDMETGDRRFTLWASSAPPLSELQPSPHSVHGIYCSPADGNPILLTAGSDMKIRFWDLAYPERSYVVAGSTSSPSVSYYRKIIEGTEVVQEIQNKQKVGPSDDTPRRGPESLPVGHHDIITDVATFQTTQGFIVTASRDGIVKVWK
Sequence (Q14457 whole entry, chain 3 of 4, further chain): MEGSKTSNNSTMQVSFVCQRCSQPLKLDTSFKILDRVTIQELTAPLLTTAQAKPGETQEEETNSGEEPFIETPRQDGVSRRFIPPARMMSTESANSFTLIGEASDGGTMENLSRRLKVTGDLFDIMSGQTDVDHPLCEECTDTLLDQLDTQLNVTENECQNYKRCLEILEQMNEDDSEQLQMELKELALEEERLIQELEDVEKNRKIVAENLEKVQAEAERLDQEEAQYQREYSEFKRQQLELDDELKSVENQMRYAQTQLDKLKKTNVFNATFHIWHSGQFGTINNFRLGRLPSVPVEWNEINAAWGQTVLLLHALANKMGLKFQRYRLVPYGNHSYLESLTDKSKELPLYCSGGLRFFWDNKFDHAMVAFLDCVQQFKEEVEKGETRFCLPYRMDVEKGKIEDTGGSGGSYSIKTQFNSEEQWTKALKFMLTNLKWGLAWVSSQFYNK
Sequence (Q9P2Y5 whole entry, chain 4 of 4, further chain): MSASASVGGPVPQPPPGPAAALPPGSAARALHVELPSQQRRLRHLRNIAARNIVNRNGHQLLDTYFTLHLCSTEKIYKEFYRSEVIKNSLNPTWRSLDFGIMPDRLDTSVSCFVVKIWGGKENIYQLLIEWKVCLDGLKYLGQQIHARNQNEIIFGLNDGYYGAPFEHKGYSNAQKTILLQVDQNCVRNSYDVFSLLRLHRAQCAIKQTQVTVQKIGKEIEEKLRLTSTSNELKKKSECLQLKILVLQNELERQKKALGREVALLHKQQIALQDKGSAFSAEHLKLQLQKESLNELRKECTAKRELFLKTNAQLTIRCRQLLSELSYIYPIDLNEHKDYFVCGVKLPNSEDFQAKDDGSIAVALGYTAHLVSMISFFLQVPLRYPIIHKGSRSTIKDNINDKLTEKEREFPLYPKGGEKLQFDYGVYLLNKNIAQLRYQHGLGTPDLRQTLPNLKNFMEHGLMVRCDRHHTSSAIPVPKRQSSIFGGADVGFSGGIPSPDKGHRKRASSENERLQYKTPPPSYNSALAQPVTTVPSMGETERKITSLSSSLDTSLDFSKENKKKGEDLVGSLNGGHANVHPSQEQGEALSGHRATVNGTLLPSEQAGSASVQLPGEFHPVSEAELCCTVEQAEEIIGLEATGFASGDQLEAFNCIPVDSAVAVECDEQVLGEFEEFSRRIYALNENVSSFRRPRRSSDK

| PI3KC3-C2 lipid kinase activity on SUVs (ADP-Glo), complexes at 12.5 nM [fold] | Substance |
| --- | --- |
| 2 | MBP tagged Rubicon PIKBD (PI3KC3-C2 binding domain) (from UniProt Q92622 1-972) (domain or fragment) |
| 2 | MBP tagged Rubicon MR (middle region) (from UniProt Q92622 1-972) (domain or fragment) |
